Experiment [1] addresses T1, human OTUB1 (OTU domain-containing ubiquitin aldehyde-binding protein 1) (human, UniProt Q96FW1 1-271). Briefly: fluorescence polarisation. For orientation: Polarisation of emitted light reports the rotation of a fluorescent probe.
For another experiment, the target named is hOTUB1 F193W (human, UniProt Q96FW1 1-271, F193W). Put plainly: fluorescence polarisation.
For another experiment, the target named is hOTUB1 F193R (human, UniProt Q96FW1 1-271, F193R). Put plainly: fluorescence polarisation.
Sequence of hOTUB1 F193R (Q96FW1 whole entry F193R): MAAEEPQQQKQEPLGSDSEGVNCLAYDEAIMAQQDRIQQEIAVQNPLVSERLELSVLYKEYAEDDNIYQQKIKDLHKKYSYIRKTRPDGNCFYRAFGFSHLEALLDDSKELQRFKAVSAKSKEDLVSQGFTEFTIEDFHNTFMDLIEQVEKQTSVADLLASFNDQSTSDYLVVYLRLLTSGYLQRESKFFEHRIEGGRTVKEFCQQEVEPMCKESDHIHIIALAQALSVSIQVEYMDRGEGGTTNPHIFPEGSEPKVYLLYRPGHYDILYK
The next experiment concerns the target hOTUB1 H217W (human, UniProt Q96FW1 1-271, H217W). Briefly: fluorescence polarisation.
The target of experiment [2] is T2, Caenorhabditis elegans OTUB1 (Caenorhabditis elegans, UniProt Q9XVR6).
T2 sequence: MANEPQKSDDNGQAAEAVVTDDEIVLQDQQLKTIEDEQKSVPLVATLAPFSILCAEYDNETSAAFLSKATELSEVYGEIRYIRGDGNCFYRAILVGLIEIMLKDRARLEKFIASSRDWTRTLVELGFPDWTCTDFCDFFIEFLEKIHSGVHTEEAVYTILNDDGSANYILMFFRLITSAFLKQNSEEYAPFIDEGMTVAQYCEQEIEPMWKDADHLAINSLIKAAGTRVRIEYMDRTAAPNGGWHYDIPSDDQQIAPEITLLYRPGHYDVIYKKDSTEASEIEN
Briefly: fluorescence polarisation.

The next experiment addresses His6-tagged human OTUB1 (human, UniProt Q96FW1 1-271). Briefly: pull-down.
The target in the next experiment is hOTUB1Δ15 (human, UniProt Q96FW1 16-271). Briefly: pull-down.
Sequence of hOTUB1Δ15 (Q96FW1 16-271, stated change not applied): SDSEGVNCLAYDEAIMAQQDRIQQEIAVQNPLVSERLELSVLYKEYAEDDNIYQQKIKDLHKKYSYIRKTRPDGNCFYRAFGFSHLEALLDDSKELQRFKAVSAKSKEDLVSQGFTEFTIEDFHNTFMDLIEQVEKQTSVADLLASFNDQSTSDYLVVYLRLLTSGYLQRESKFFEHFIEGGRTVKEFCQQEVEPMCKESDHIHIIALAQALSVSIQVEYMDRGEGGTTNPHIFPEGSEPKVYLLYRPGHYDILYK
The target of experiment [3] is T1, human OTUB1 (OTU domain-containing …). Put plainly: SEC. (SEC sorts molecules by how far they enter the pores of the column.)

One may read the Kd as the equilibrium constant for the complex coming apart. Read a high Kd as weaker binding.

Numbering of substitutions follows the chain as printed. Names may count otherwise.

T1 sequence (Q96FW1 whole entry, the tested form may be a part): as the sequence (Q96FW1 whole entry F193R) above, with R193F counted along it
Sequence of His6-tagged human OTUB1 (Q96FW1 whole entry): as the sequence (Q96FW1 whole entry F193R) above, with R193F counted along it
Sequence of hOTUB1 F193W (Q96FW1 whole entry F193W): as the sequence (Q96FW1 whole entry F193R) above, with R193W counted along it
Sequence of hOTUB1 H217W (Q96FW1 whole entry H217W): as the sequence (Q96FW1 whole entry F193R) above, with R193F, H217W counted along it

B1: fluorescein-labeled human UBC13 (enzyme)
chain: MAGLPRRIIKETQRLLAEPVPGIKAEPDESNARYFHVVIAGPQDSPFEGGTFKLELFLPEEYPMAAPKVRFMTKIYHPNVDKLGRICLDILKDKWSPALQIRTVLLSIQALLSAPNPDDPLANDVAEQWKTNEAQAIETARAWTRLYAMNNI
modifications: labeled with fluorescein-5-maleimide
B1: the Kd turned out to be 7.04 µM in experiment [1] and 58.5 µM in experiment [2]. Moreover, the binding result with hOTUB1 F193W, with hOTUB1 F193R and in the experiment with hOTUB1 H217W was “binds” each time.

B2: UBC13^C87S~Ub oxyester (complex)
chain 1: B1 chain with C87S
chain 2: […]
With B2, the binding result in the experiment with His6-tagged human OTUB1 and in the experiment with hOTUB1Δ15 was “binds” each time.

B3: human UBC13 (UBE2N) (enzyme)
chain: B1 chain
Consider B3, for which the binding result in experiment [3] is “binds”.
